We go through 4 molecules from article PMC9722645 (Structure (London, England : 1993), 2022).

Non-standard residues stand in square brackets, D forms with d. pY = N[C@@H](Cc1ccc(OP(=O)(O)O)cc1)C(=O)O

Data set [1] deals with p190RhoGAP pY1087 peptide (Homo sapiens) (UniProt Q9NRY4). In words: ITC. The following applies: cited from earlier work.
The target of data set [2] is p190RhoGAP pY1105 peptide (Homo sapiens) (UniProt Q9NRY4). In words: ITC. The note with it: cited from earlier work.
For a further data set, the system named is Ras. The following applies: ref [3],[4]; cited from earlier work.
Data set [3] concerns the target T1, p120RasGAP SH2-SH3-SH2 region (residues 174–444) (human, UniProt P20936 174-444, C236S | C261S | C372S | C402S).
T1 sequence (looked up): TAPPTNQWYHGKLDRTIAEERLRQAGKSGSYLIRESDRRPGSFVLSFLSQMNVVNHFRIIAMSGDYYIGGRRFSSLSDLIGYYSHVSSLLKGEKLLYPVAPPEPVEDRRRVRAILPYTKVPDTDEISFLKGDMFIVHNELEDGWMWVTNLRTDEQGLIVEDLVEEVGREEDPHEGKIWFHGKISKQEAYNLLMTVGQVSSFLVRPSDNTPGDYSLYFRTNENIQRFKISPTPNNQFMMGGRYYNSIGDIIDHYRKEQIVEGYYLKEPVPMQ
In words: ITC.

Chain of p190RhoGAP pY1105 peptide (Homo sapiens) (Q9NRY4 whole entry): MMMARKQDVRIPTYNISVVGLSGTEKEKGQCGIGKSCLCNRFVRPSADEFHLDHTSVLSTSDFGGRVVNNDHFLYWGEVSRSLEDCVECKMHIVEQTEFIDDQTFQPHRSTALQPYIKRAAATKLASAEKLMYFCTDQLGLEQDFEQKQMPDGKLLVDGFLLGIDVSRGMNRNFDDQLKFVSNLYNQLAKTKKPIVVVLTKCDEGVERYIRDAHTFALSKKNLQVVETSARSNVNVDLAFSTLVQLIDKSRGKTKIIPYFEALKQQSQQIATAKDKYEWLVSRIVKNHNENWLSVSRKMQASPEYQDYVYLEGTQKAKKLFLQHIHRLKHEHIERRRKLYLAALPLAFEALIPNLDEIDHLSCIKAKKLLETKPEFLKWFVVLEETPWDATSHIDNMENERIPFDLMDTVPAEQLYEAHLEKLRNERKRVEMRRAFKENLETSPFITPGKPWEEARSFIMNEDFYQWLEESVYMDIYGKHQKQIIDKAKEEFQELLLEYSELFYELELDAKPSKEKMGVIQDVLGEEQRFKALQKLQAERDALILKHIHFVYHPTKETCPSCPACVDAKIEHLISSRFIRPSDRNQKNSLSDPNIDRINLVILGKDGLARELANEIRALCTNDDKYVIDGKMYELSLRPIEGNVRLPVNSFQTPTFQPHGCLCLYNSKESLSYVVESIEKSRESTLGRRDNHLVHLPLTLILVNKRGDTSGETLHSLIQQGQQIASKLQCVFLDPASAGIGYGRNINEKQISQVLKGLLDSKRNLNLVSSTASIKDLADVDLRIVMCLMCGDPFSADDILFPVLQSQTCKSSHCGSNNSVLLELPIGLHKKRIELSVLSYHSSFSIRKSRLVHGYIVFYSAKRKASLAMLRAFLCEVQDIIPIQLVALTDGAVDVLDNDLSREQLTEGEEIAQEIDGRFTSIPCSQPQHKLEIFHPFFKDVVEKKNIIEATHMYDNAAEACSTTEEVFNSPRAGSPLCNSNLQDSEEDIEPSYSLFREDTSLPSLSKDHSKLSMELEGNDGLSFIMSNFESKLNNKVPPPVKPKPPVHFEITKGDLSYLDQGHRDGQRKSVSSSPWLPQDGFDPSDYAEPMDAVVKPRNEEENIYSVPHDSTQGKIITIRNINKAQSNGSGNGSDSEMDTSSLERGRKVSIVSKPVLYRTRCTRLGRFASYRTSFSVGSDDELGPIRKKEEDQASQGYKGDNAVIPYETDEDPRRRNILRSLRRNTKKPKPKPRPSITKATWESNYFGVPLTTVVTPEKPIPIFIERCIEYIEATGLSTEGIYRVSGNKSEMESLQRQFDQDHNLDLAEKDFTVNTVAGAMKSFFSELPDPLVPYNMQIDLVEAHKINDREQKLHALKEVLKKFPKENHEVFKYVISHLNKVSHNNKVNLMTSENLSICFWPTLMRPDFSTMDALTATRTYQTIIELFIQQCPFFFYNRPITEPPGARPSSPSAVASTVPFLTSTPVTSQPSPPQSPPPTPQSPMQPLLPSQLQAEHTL
Chain of p190RhoGAP pY1087 peptide (Homo sapiens) (Q9NRY4 whole entry): as above

Turning to p120RasGAP C-SH2 (from UniProt P20936), the Kd in data set [1] was 150 nM.
For the molecule p120RasGAP N-SH2 (from UniProt P20936), the Kd in data set [2] was 300 nM.

B1: p120RasGAP: key regulatory protein of the Ras subfamily of small guanine-nucleotide binding GTPases (protein)
chain: T1 sequence (looked up)
modifications: left off: His6, N-terminal, cleaved
For the molecule B1, the “enhancement of GTPase activity of Ras” value in the data set with Ras is listed as “two to five orders of magnitude”.

B2: doubly-phosphorylated p190RhoGAP-A peptide (residues 1083–1111, pY1087 and pY1105) (peptide)
peptide: Ac-DPSD[pY]AEPMDAVVKPRNEEENI[pY]SVPHDS-NH2
Consider B2, for which, in data set [3], the dH was -31.1 kcal/mol.
